B1: CLOCK-BMAL1 bHLH PAS-AB heterodimer with BMAL1 R173A (complex)
chain 1: VEEDDKDKAKRVSRNKSEKKRRDQFNVLIKELGSMLPGNARKMDKSTVLQKSIDFLRKHKETTAQSDASEIRQDWKPTFLSNEEFTQLMLEALDGFFLAIMTDGSIIYVSESVTSLLEHLPSDLVDQSIFNFIPEGEHSEVYKILSTHLLESDSLTPEYLKSKNQLEFCCHMLRGTIDPKEPSTYEYVRFIGNFKSLTSVSTSTHNGFEGTIQRTHRPSYEDRVCFVATVRLATPQFIKEMCTVEEPNEEFTSRHSLEWKFLFLDHRAPPIIGYLPFEVLGTSGYDYYHVDDLENLAKCHEHLMQYGKGKSCYYRFLTKGQQWIWLQTHYYITYHQWNSRPEFIVCTHTVVSYAEVRAERRRELGIEESL
chain 2: not shown
B2: CLOCK-BMAL1 bHLH PAS-AB heterodimer (complex)
chain 1: B1 chain 1
chain 2: not shown
B3: CLOCK-BMAL1 bHLH PAS-AB heterodimer with BMAL1 Q385A (complex)
chain 1: B1 chain 1
chain 2: not shown

Legend:
[1] = biological target: T1, nucleosome core particle: human histone octamer (H2A, H2B, H3.1, H4) wrapped by DNA (human, UniProt P04908 1-130; P06899 1-126; P68431 1-136; P62805 1-103); assay: FRET; NCP SHL-6.2; competition with His-MYC-MAX (800 nM)
[2] = biological target: T1, nucleosome core particle: human histone …; assay: FRET; NCP SHL+5.8; competition with His-MYC-MAX (625 nM)

| Binder | IC50 [1] [nM] | IC50 [2] [nM] |
| --- | --- | --- |
| B1 | > 3000 | – |
| B2 | 1180 | 2320 |
| B3 | > 3000 | – |

From publication PMC10338342 (2023)
